Reference: US10919943B2, “Mutant proteins enabling agrochemical control of plant gene expression” (The Regents of the University of California, priority 2016, dated 2021)
Residue numbers refer to the chain shown, from its start. In names and notes the source's numbering stands.

T1: PYR1 (Arabidopsis thaliana, UniProt O49686)
T1 construct: expressed in transfected cells; host or cells: S. cerevisiae strain Y190
T1 sequence (O49686 1-191): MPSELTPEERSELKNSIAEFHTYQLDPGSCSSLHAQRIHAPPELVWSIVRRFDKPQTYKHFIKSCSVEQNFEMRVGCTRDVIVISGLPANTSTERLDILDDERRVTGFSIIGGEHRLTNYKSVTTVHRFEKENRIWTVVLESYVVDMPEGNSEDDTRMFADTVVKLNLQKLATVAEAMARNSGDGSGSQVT

B1: I383W: HAB1 mutant (protein, UniProt Q9CAJ0 23-511, looked up, variant I383W)
Protein phosphatase 2C 16: SPVEITQLKNVTDAADLLSDSENQSFCNGGTECTMEDVSELEEVGEQDLLKTLSDTRSGSSNVFDEDDVLSVVEDNSAVISEGLLVVDAGSELSLSNTAMEIDNGRVLATAIIVGESSIEQVPTAEVLIAGVNQDTNTSEVVIRLPDENSNHLVKGRSVYELDCIPLWGTVSIQGNRSEMEDAFAVSPHFLKLPIKMLMGDHEGMSPSLTHLTGHFFGVYDGHGGHKVADYCRDRLHFALAEEIERIKDELCKRNTGEGRQVQWDKVFTSCFLTVDGEIEGKIGRAVVGSSDKVLEAVASETVGSTAVVALVCSSHIVVSNCGDSRAVLFRGKEAMPLSVDHKPDREDEYARIENAGGKVWQWQGARVFGVLAMSRSIGDRYLKPYVIPEPEVTFMPRSREDECLILASDGLWDVMNNQEVCEIARRRILMWHKKNGAPPLAERGKGIDPACQAAADYLSMLALQKGSKDNISIIVIDLKAQRKFKTRT
B2: I383Y: HAB1 mutant (protein, UniProt Q9CAJ0 23-511, looked up, variant I383Y)
Protein phosphatase 2C 16: B1 Protein phosphatase 2C 16 with W361Y
B3: R389L: HAB1 mutant (protein, UniProt Q9CAJ0 23-511, looked up, variant R389L)
Protein phosphatase 2C 16: B1 Protein phosphatase 2C 16 with W361I, R367L
B4: W385Y: HAB1 mutant (protein, UniProt Q9CAJ0 23-511, looked up, variant W385Y)
Protein phosphatase 2C 16: B1 Protein phosphatase 2C 16 with W361I, W363Y
B5: I383H: HAB1 mutant (protein, UniProt Q9CAJ0 23-511, looked up, variant I383H)
Protein phosphatase 2C 16: B1 Protein phosphatase 2C 16 with W361H
B6: R389P: HAB1 mutant (protein, UniProt Q9CAJ0 23-511, looked up, variant R389P)
Protein phosphatase 2C 16: B1 Protein phosphatase 2C 16 with W361I, R367P
B7: W385R: HAB1 mutant (protein, UniProt Q9CAJ0 23-511, looked up, variant W385R)
Protein phosphatase 2C 16: B1 Protein phosphatase 2C 16 with W361I, W363R
B8: W385C: HAB1 mutant (protein, UniProt Q9CAJ0 23-511, looked up, variant W385C)
Protein phosphatase 2C 16: B1 Protein phosphatase 2C 16 with W361I, W363C
B9: W385F: HAB1 mutant (protein, UniProt Q9CAJ0 23-511, looked up, variant W385F)
Protein phosphatase 2C 16: B1 Protein phosphatase 2C 16 with W361I, W363F
B10: W385A: HAB1 mutant (protein, UniProt Q9CAJ0 23-511, looked up, variant W385A)
Protein phosphatase 2C 16: B1 Protein phosphatase 2C 16 with W361I, W363A
B11: R389A: HAB1 mutant (protein, UniProt Q9CAJ0 23-511, looked up, variant R389A)
Protein phosphatase 2C 16: B1 Protein phosphatase 2C 16 with W361I, R367A
B12: W385P: HAB1 mutant (protein, UniProt Q9CAJ0 23-511, looked up, variant W385P)
Protein phosphatase 2C 16: B1 Protein phosphatase 2C 16 with W361I, W363P
B13: R389M: HAB1 mutant (protein, UniProt Q9CAJ0 23-511, looked up, variant R389M)
Protein phosphatase 2C 16: B1 Protein phosphatase 2C 16 with W361I, R367M
B14: W385Q: HAB1 mutant (protein, UniProt Q9CAJ0 23-511, looked up, variant W385Q)
Protein phosphatase 2C 16: B1 Protein phosphatase 2C 16 with W361I, W363Q
B15: W385L: HAB1 mutant (protein, UniProt Q9CAJ0 23-511, looked up, variant W385L)
Protein phosphatase 2C 16: B1 Protein phosphatase 2C 16 with W361I, W363L
B16: W385M: HAB1 mutant (protein, UniProt Q9CAJ0 23-511, looked up, variant W385M)
Protein phosphatase 2C 16: B1 Protein phosphatase 2C 16 with W361I, W363M
B17: W385D: HAB1 mutant (protein, UniProt Q9CAJ0 23-511, looked up, variant W385D)
Protein phosphatase 2C 16: B1 Protein phosphatase 2C 16 with W361I, W363D
B18: W385I: HAB1 mutant (protein, UniProt Q9CAJ0 23-511, looked up, variant W385I)
Protein phosphatase 2C 16: B1 Protein phosphatase 2C 16 with W361I, W363I
B19: W385H: HAB1 mutant (protein, UniProt Q9CAJ0 23-511, looked up, variant W385H)
Protein phosphatase 2C 16: B1 Protein phosphatase 2C 16 with W361I, W363H
B20: W385T: HAB1 mutant (protein, UniProt Q9CAJ0 23-511, looked up, variant W385T)
Protein phosphatase 2C 16: B1 Protein phosphatase 2C 16 with W361I, W363T
B21: W385S: HAB1 mutant (protein, UniProt Q9CAJ0 23-511, looked up, variant W385S)
Protein phosphatase 2C 16: B1 Protein phosphatase 2C 16 with W361I, W363S
B22: W385V: HAB1 mutant (protein, UniProt Q9CAJ0 23-511, looked up, variant W385V)
Protein phosphatase 2C 16: B1 Protein phosphatase 2C 16 with W361I, W363V
B23: W385E: HAB1 mutant (protein, UniProt Q9CAJ0 23-511, looked up, variant W385E)
Protein phosphatase 2C 16: B1 Protein phosphatase 2C 16 with W361I, W363E
B24: I383K: HAB1 mutant (protein, UniProt Q9CAJ0 23-511, looked up, variant I383K)
Protein phosphatase 2C 16: B1 Protein phosphatase 2C 16 with W361K
B25: W385N: HAB1 mutant (protein, UniProt Q9CAJ0 23-511, looked up, variant W385N)
Protein phosphatase 2C 16: B1 Protein phosphatase 2C 16 with W361I, W363N
B26: I383D: HAB1 mutant (protein, UniProt Q9CAJ0 23-511, looked up, variant I383D)
Protein phosphatase 2C 16: B1 Protein phosphatase 2C 16 with W361D
B27: I383E: HAB1 mutant (protein, UniProt Q9CAJ0 23-511, looked up, variant I383E)
Protein phosphatase 2C 16: B1 Protein phosphatase 2C 16 with W361E
B28: W385K: HAB1 mutant (protein, UniProt Q9CAJ0 23-511, looked up, variant W385K)
Protein phosphatase 2C 16: B1 Protein phosphatase 2C 16 with W361I, W363K
B29: W385G: HAB1 mutant (protein, UniProt Q9CAJ0 23-511, looked up, variant W385G)
Protein phosphatase 2C 16: B1 Protein phosphatase 2C 16 with W361I, W363G
B30: I383G: HAB1 mutant (protein, listed as Arabidopsis thaliana)
chain: MEEMTPAVAMTLSLAANTMCESSPVEITQLKNVTDAADLLSDSENQSFCNGGTECTMEDVSELEEVGEQDLLKTLSDTRSGSSNVFDEDDVLSVVEDNSAVISEGLLVVDAGSELSLSNTAMEIDNGRVLATAIIVGESSIEQVPTAEVLIAGVNQDTNTSEVVIRLPDENSNHLVKGRSVYELDCIPLWGTVSIQGNRSEMEDAFAVSPHFLKLPIKMLMGDHEGMSPSLTHLTGHFFGVYDGHGGHKVADYCRDRLHFALAEEIERIKDELCKRNTGEGRQVQWDKVFTSCFLTVDGEIEGKIGRAVVGSSDKVLEAVASETVGSTAVVALVCSSHIVVSNCGDSRAVLFRGKEAMPLSVDHKPDREDEYARIENAGGKVGQWQGARVFGVLAMSRSIGDRYLKPYVIPEPEVTFMPRSREDECLILASDGLWDVMNNQEVCEIARRRILMWHKKNGAPPLAERGKGIDPACQAAADYLSMLALQKGSKDNISIIVIDLKAQRKFKTRT

target: T1, PYR1; experiment: Yeast two hybrid of pACT-HAB1 site saturation mutants with pBD-PYR1 on 10 μM ABA, β-galactosidase staining; format: cell-based; set-up: key: x: Mutations in HAB1 that disrupt HAB1 interaction with PYR1; conditions: S. cerevisiae Y190, 10 μM ABA; dead = lack of detectable staining in comparison to wild type control
Source text: To systematically define mutations in HAB1 that disrupt its binding to PYR1, we used site saturation mutagenesis to create a collection all possible single amino acid substitutions in 20 residues lining the PYR1 binding interface, and then assayed the ability of each mutant to bind PYR1 using the yeast two hybrid assay described above. We targeted the following residues for mutagenesis: R199, 5200, E201, E203, H245, G246, G247, S322, E323, T324, K381, I383, Q384, W385, Q386, R389, F391, G392, V393, and Y404. To create the collection of mutations, mutagenic “NNK” site directed mutagenesis primers were synthesized for each of the 20 positions and the primers used in QuickChange site-directed mutagenesis reactions using a previously described pACT-HAB1 template (Park et al., 2009). We note that this clone uses a HAB1 cDNA lacking its three N-terminal amino acids. The reaction products were digested with DpnI, and transformed into competent Escherichia coli DH5α cells and plasmid DNA for 96 colonies per site was isolated using Bioneer AccuPrep® Plasmid Mini Extraction Kit (Alameda, Calif.) and sequenced to identify mutants. This process identified most of the 19 desired mutations per target site; the remaining mutations were constructed directly using specific mutagenic primers. To interrogate the effects of the mutations on PYR1-HAB1 interactions, the mutant clones were individually transformed into S. cerevisiae strain Y190 containing pBD-PYR1 (Park et al., 2009). Yeast transformants were selected for the presence of plasmids on selective SD (-Leu,-Trp) plates and then spotted onto SD (-Leu,-Trp) agar plates supplemented with 10 μM ABA. After incubating the test plates at 30° C. for two days, the colonies were lysed with chloroform and stained to reveal […] expression levels. “Dead” mutants were defined by lack of detectable staining in comparison to a wild type pBD-PYR1/pACT-HAB1 control. This screening effort defined 163 mutations that disrupt the ABA-induced PYR1/HAB1 interaction (Table 2).

Mutations in HAB1 that disrupt HAB1 interaction with PYR1	Molecule
x	B1
x	B2
x	B3
x	B4
x	B5
x	B6
x	B7
x	B8
x	B9
x	B10
x	B11
x	B12
x	B13
x	B14
x	B15
x	B16
x	B17
x	B18
x	B19
x	B20
x	B21
x	B22
x	B23
x	B24
x	B25
x	B26
x	B27
x	B28
x	B29
x	B30
